The assay has as its target Cynomolgus TIGIT. The assay can be described thus: Biacore. A general note: SPR reads the build-up and loss of mass on a sensor chip optically.

Residue numbers refer to the chain shown, from its start.

B1: 50C2 Affinity Matured (HAM) (antibody, V domains shown)
VH: QVQLQESGPGLVKPSETLSLTCTVSGFSLTNYNINWIRQPPGKGLEWIGVIWNGGGTNYNSAFMSRVTISKDTSKNQVSLKLSSVTAADTAVYYCVREAYFSNYGFYFDYWGQGTLVTVSS
VL: DIQMTQSPSSLSASVGDRVTITCSASSSISSNYLHWYQQKPGKAPKLLIYRTSNLASGVPSRFSGSGSGTDFTLTISSLQPEDFATYYCQQGSSIPRTFGGGTKVEIK
With B1, the affinity, expressed as Kd, was 19.2 nM.

B2: 50C2 Humanized (Hu) (antibody, V domains shown)
VH: B1 VH with N53T
VL: B1 VL
B2: the Kd (usually a measure of binding affinity in units of concentration) amounted to 69.5 nM.

Values taken from US20240425588A1 (published 2024).
